Test results reported in ChEMBL document CHEMBL3425448, “Synthesis of hydrolysis-resistant pyridoxal 5'-phosphate analogs and their biochemical and X-ray crystallographic characterization with the pyridoxal phosphatase chronophin” (Bioorg Med Chem, 2015).

Key:
[1] = compound: Cc1ncc(/C=C/P(=O)(O)O)c(C=O)c1O; assay: (§1) Inhibition of recombinant mouse brain PDXP-mediated pyridoxal 5' phosphate hydrolysis expressed in Escherichia coli BL21 (DE3) cells assessed as enzyme Km at 0.1 mM preincubated for 4 mins followed by substrate addition measured after 2 mins
[2] = compound: Cc1ncc(/C=C/P(=O)(O)O)c(CO)c1O; assay: as §1
[3] = compound: Cc1ncc(CCP(=O)(O)O)c(C=O)c1O; assay: as §1
[4] = compound: Cc1ncc(CCP(=O)(O)O)c(CO)c1O; assay: as §1
[5] = compound: Cc1ncc(/C=C/P(=O)(O)O)c(C=O)c1O; assay: (§2) Inhibition of recombinant mouse brain PDXP-mediated pyridoxal 5' phosphate hydrolysis expressed in Escherichia coli BL21 (DE3) cells assessed as enzyme Vmax at 0.1 mM preincubated for 4 mins followed by substrate addition measured after 2 mins
[6] = compound: Cc1ncc(/C=C/P(=O)(O)O)c(CO)c1O; assay: as §2
[7] = compound: Cc1ncc(CCP(=O)(O)O)c(C=O)c1O; assay: as §2
[8] = compound: Cc1ncc(CCP(=O)(O)O)c(CO)c1O; assay: as §2
[9] = compound: Cc1ncc(/C=C/P(=O)(O)O)c(C=O)c1O; assay: (§3) Inhibition of recombinant mouse brain PDXP-mediated pyridoxal 5' phosphate hydrolysis expressed in Escherichia coli BL21 (DE3) cells assessed as enzyme Kcat at 0.1 mM preincubated for 4 mins followed by substrate addition measured after 2 mins
[10] = compound: Cc1ncc(/C=C/P(=O)(O)O)c(CO)c1O; assay: as §3
[11] = compound: Cc1ncc(CCP(=O)(O)O)c(C=O)c1O; assay: as §3
[12] = compound: Cc1ncc(CCP(=O)(O)O)c(CO)c1O; assay: as §3
[13] = compound: Cc1ncc(/C=C/P(=O)(O)O)c(C=O)c1O; assay: (§4) Inhibition of recombinant mouse brain PDXP-mediated pyridoxal 5' phosphate hydrolysis expressed in Escherichia coli BL21 (DE3) cells assessed as ratio of enzyme Kcat/Km at 0.1 mM preincubated for 4 mins followed by substrate addition measured after 2 mins
[14] = compound: Cc1ncc(/C=C/P(=O)(O)O)c(CO)c1O; assay: as §4
[15] = compound: Cc1ncc(CCP(=O)(O)O)c(C=O)c1O; assay: as §4
[16] = compound: Cc1ncc(CCP(=O)(O)O)c(CO)c1O; assay: as §4
[17] = compound: Cc1ncc(/C=C/P(=O)(O)O)c(C=O)c1O; assay: (§5) Inhibition of recombinant mouse brain PDXP-mediated pyridoxal 5' phosphate hydrolysis expressed in Escherichia coli BL21 (DE3) cells assessed as enzyme Km at 0.5 mM preincubated for 4 mins followed by substrate addition measured after 2 mins
[18] = compound: Cc1ncc(/C=C/P(=O)(O)O)c(CO)c1O; assay: as §5
[19] = compound: Cc1ncc(CCP(=O)(O)O)c(C=O)c1O; assay: as §5
[20] = compound: Cc1ncc(CCP(=O)(O)O)c(CO)c1O; assay: as §5
[21] = compound: Cc1ncc(/C=C/P(=O)(O)O)c(C=O)c1O; assay: (§6) Inhibition of recombinant mouse brain PDXP-mediated pyridoxal 5' phosphate hydrolysis expressed in Escherichia coli BL21 (DE3) cells assessed as enzyme Vmax at 0.5 mM preincubated for 4 mins followed by substrate addition measured after 2 mins
[22] = compound: Cc1ncc(/C=C/P(=O)(O)O)c(CO)c1O; assay: as §6
[23] = compound: Cc1ncc(CCP(=O)(O)O)c(C=O)c1O; assay: as §6
[24] = compound: Cc1ncc(CCP(=O)(O)O)c(CO)c1O; assay: as §6
[25] = compound: Cc1ncc(/C=C/P(=O)(O)O)c(C=O)c1O; assay: (§7) Inhibition of recombinant mouse brain PDXP-mediated pyridoxal 5' phosphate hydrolysis expressed in Escherichia coli BL21 (DE3) cells assessed as enzyme Kcat at 0.5 mM preincubated for 4 mins followed by substrate addition measured after 2 mins
[26] = compound: Cc1ncc(/C=C/P(=O)(O)O)c(CO)c1O; assay: as §7
[27] = compound: Cc1ncc(CCP(=O)(O)O)c(C=O)c1O; assay: as §7
[28] = compound: Cc1ncc(CCP(=O)(O)O)c(CO)c1O; assay: as §7
[29] = compound: Cc1ncc(/C=C/P(=O)(O)O)c(C=O)c1O; assay: (§8) Inhibition of recombinant mouse brain PDXP-mediated pyridoxal 5' phosphate hydrolysis expressed in Escherichia coli BL21 (DE3) cells assessed as ratio of enzyme Kcat/Km at 0.5 mM preincubated for 4 mins followed by substrate addition measured after 2 mins
[30] = compound: Cc1ncc(/C=C/P(=O)(O)O)c(CO)c1O; assay: as §8
[31] = compound: Cc1ncc(CCP(=O)(O)O)c(C=O)c1O; assay: as §8
[32] = compound: Cc1ncc(CCP(=O)(O)O)c(CO)c1O; assay: as §8
[33] = compound: Cc1ncc(/C=C/P(=O)(O)O)c(C=O)c1O; assay: (§9) Inhibition of recombinant mouse brain PDXP-mediated pyridoxal 5' phosphate hydrolysis expressed in Escherichia coli BL21 (DE3) cells assessed as enzyme Km at 1 mM preincubated for 4 mins followed by substrate addition measured after 2 mins
[34] = compound: Cc1ncc(/C=C/P(=O)(O)O)c(CO)c1O; assay: as §9
[35] = compound: Cc1ncc(CCP(=O)(O)O)c(C=O)c1O; assay: as §9
[36] = compound: Cc1ncc(CCP(=O)(O)O)c(CO)c1O; assay: as §9
[37] = compound: Cc1ncc(/C=C/P(=O)(O)O)c(C=O)c1O; assay: (§10) Inhibition of recombinant mouse brain PDXP-mediated pyridoxal 5' phosphate hydrolysis expressed in Escherichia coli BL21 (DE3) cells assessed as enzyme Vmax at 1 mM preincubated for 4 mins followed by substrate addition measured after 2 mins
[38] = compound: Cc1ncc(/C=C/P(=O)(O)O)c(CO)c1O; assay: as §10
[39] = compound: Cc1ncc(CCP(=O)(O)O)c(C=O)c1O; assay: as §10
[40] = compound: Cc1ncc(CCP(=O)(O)O)c(CO)c1O; assay: as §10
[41] = compound: Cc1ncc(/C=C/P(=O)(O)O)c(C=O)c1O; assay: (§11) Inhibition of recombinant mouse brain PDXP-mediated pyridoxal 5' phosphate hydrolysis expressed in Escherichia coli BL21 (DE3) cells assessed as enzyme Kcat at 1 mM preincubated for 4 mins followed by substrate addition measured after 2 mins
[42] = compound: Cc1ncc(/C=C/P(=O)(O)O)c(CO)c1O; assay: as §11
[43] = compound: Cc1ncc(CCP(=O)(O)O)c(C=O)c1O; assay: as §11
[44] = compound: Cc1ncc(CCP(=O)(O)O)c(CO)c1O; assay: as §11
[45] = compound: Cc1ncc(/C=C/P(=O)(O)O)c(C=O)c1O; assay: (§12) Inhibition of recombinant mouse brain PDXP-mediated pyridoxal 5' phosphate hydrolysis expressed in Escherichia coli BL21 (DE3) cells assessed as ratio of enzyme Kcat/Km at 1 mM preincubated for 4 mins followed by substrate addition measured after 2 mins
[46] = compound: Cc1ncc(/C=C/P(=O)(O)O)c(CO)c1O; assay: as §12
[47] = compound: Cc1ncc(CCP(=O)(O)O)c(C=O)c1O; assay: as §12
[48] = compound: Cc1ncc(CCP(=O)(O)O)c(CO)c1O; assay: as §12
[49] = compound: Cc1ncc(/C=C/P(=O)(O)O)c(C=O)c1O; assay: (§13) Inhibition of recombinant mouse brain PDXP-mediated pyridoxal 5' phosphate hydrolysis expressed in Escherichia coli BL21 (DE3) cells assessed as enzyme Km at 2 mM preincubated for 4 mins followed by substrate addition measured after 2 mins
[50] = compound: Cc1ncc(/C=C/P(=O)(O)O)c(CO)c1O; assay: as §13
[51] = compound: Cc1ncc(CCP(=O)(O)O)c(C=O)c1O; assay: as §13
[52] = compound: Cc1ncc(CCP(=O)(O)O)c(CO)c1O; assay: as §13
[53] = compound: Cc1ncc(/C=C/P(=O)(O)O)c(C=O)c1O; assay: (§14) Inhibition of recombinant mouse brain PDXP-mediated pyridoxal 5' phosphate hydrolysis expressed in Escherichia coli BL21 (DE3) cells assessed as enzyme Vmax at 2 mM preincubated for 4 mins followed by substrate addition measured after 2 mins
[54] = compound: Cc1ncc(/C=C/P(=O)(O)O)c(CO)c1O; assay: as §14
[55] = compound: Cc1ncc(CCP(=O)(O)O)c(C=O)c1O; assay: as §14
[56] = compound: Cc1ncc(CCP(=O)(O)O)c(CO)c1O; assay: as §14
[57] = compound: Cc1ncc(/C=C/P(=O)(O)O)c(C=O)c1O; assay: (§15) Inhibition of recombinant mouse brain PDXP-mediated pyridoxal 5' phosphate hydrolysis expressed in Escherichia coli BL21 (DE3) cells assessed as enzyme Kcat at 2 mM preincubated for 4 mins followed by substrate addition measured after 2 mins
[58] = compound: Cc1ncc(/C=C/P(=O)(O)O)c(CO)c1O; assay: as §15
[59] = compound: Cc1ncc(CCP(=O)(O)O)c(C=O)c1O; assay: as §15
[60] = compound: Cc1ncc(CCP(=O)(O)O)c(CO)c1O; assay: as §15
[61] = compound: Cc1ncc(/C=C/P(=O)(O)O)c(C=O)c1O; assay: (§16) Inhibition of recombinant mouse brain PDXP-mediated pyridoxal 5' phosphate hydrolysis expressed in Escherichia coli BL21 (DE3) cells assessed as ratio of enzyme Kcat/Km at 2 mM preincubated for 4 mins followed by substrate addition measured after 2 mins
[62] = compound: Cc1ncc(/C=C/P(=O)(O)O)c(CO)c1O; assay: as §16
[63] = compound: Cc1ncc(CCP(=O)(O)O)c(C=O)c1O; assay: as §16
[64] = compound: Cc1ncc(CCP(=O)(O)O)c(CO)c1O; assay: as §16

B1: Chronophin (Mus musculus), P60487 (protein)
chain: MARCERLRGAALRDVLGQAQGVLFDCDGVLWNGERIVPGAPELLQRLARAGKNTLFVSNNSRRARPELALRFARLGFAGLRAEQLFSSALCAARLLRQRLSGPPDASGAVFVLGGEGLRAELRAAGLRLAGDPGEDPRVRAVLVGYDEQFSFSRLTEACAHLRDPDCLLVATDRDPWHPLSDGSRTPGTGSLAAAVETASGRQALVVGKPSPYMFQCITEDFSVDPARTLMVGDRLETDILFGHRCGMTTVLTLTGVSSLEEAQAYLTAGQRDLVPHYYVESIADLMEGLED
[1]
  Km: 78 µM
[2]
  Km: 44 µM
[3]
  Km: 72 µM
[4]
  Km: 59 µM
[5]
  Vmax: 3580 nmol/min/mg
[6]
  Vmax: 3300 nmol/min/mg
[7]
  Vmax: 3590 nmol/min/mg
[8]
  Vmax: 3740 nmol/min/mg
[9]
  kcat: 1.9 s⁻¹
[10]
  kcat: 1.8 s⁻¹
[11]
  kcat: 1.9 s⁻¹
[12]
  kcat: 2 s⁻¹
[13]
  kcat/Km: 2.4 ×10⁴ /s/M
[14]
  kcat/Km: 4 ×10⁴ /s/M
[15]
  kcat/Km: 2.7 ×10⁴ /s/M
[16]
  kcat/Km: 3.3 ×10⁴ /s/M
[17]
  Km: 170 µM
[18]
  Km: 77 µM
[19]
  Km: 170 µM
[20]
  Km: 83 µM
[21]
  Vmax: 2990 nmol/min/mg
[22]
  Vmax: 3230 nmol/min/mg
[23]
  Vmax: 3280 nmol/min/mg
[24]
  Vmax: 3680 nmol/min/mg
[25]
  kcat: 1.6 s⁻¹
[26]
  kcat: 1.7 s⁻¹
[27]
  kcat: 1.7 s⁻¹
[28]
  kcat: 2 s⁻¹
[29]
  kcat/Km: 0.9 ×10⁴ /s/M
[30]
  kcat/Km: 2.2 ×10⁴ /s/M
[31]
  kcat/Km: 1 ×10⁴ /s/M
[32]
  kcat/Km: 2.4 ×10⁴ /s/M
[33]
  Km: 248 µM
[34]
  Km: 112 µM
[35]
  Km: 197 µM
[36]
  Km: 98 µM
[37]
  Vmax: 2300 nmol/min/mg
[38]
  Vmax: 3150 nmol/min/mg
[39]
  Vmax: 2620 nmol/min/mg
[40]
  Vmax: 3440 nmol/min/mg
[41]
  kcat: 1.2 s⁻¹
[42]
  kcat: 1.7 s⁻¹
[43]
  kcat: 1.4 s⁻¹
[44]
  kcat: 1.8 s⁻¹
[45]
  kcat/Km: 0.5 ×10⁴ /s/M
[46]
  kcat/Km: 1.5 ×10⁴ /s/M
[47]
  kcat/Km: 0.7 ×10⁴ /s/M
[48]
  kcat/Km: 1.9 ×10⁴ /s/M
[49]
  Km: 224 µM
[50]
  Km: 181 µM
[51]
  Km: 246 µM
[52]
  Km: 136 µM
[53]
  Vmax: 1640 nmol/min/mg
[54]
  Vmax: 3070 nmol/min/mg
[55]
  Vmax: 2130 nmol/min/mg
[56]
  Vmax: 3150 nmol/min/mg
[57]
  kcat: 0.9 s⁻¹
[58]
  kcat: 1.6 s⁻¹
[59]
  kcat: 1.1 s⁻¹
[60]
  kcat: 1.7 s⁻¹
[61]
  kcat/Km: 0.4 ×10⁴ /s/M
[62]
  kcat/Km: 0.9 ×10⁴ /s/M
[63]
  kcat/Km: 0.5 ×10⁴ /s/M
[64]
  kcat/Km: 1.2 ×10⁴ /s/M
